These results are taken from publication PMC10382678, “The collagen ColQ binds to LRP4 and regulates the activation of the Muscle-Specific Kinase–LRP4 receptor complex by agrin at the neuromuscular junction” (The Journal of Biological Chemistry, 2023).

As usually defined, the Kd is the constant that tells how readily two partners part at equilibrium. One may read the koff as the first-order rate constant of dissociation. A word on the kon: it is the rate constant with which the complex forms. The term stoichiometry N denotes the number of molecules, sites or subunits per partner or assembly.

In data set [1] the target is T1, purified recombinant mouse ectoLRP4 His-tag (R&D Systems) (mouse, UniProt Q8VI56 21-1725).
T1 construct: low-density lipoprotein receptor-related protein 4, mouse, ectodomain; also called purified ectoLRP4; source: bought: R&D Systems
In words: SPR; same ColQ-Flag surface; single-cycle kinetics with purified ectoLRP4-His at 296, 444, 666, 1000 and 1500 nM, 5 μl/min, 3 min association, 5 min dissociation, no regeneration; HBS-EP; 1:1 binding model with drifting baseline; n = 2. Particulars: one partner purified. (In SPR one partner is held on a chip, and binding of the other changes the refractive index at the surface.)

Data set [2] deals with the molecule itself. The data set is described as follows: co-sedimentation; extracts (0.8 M NaCl, 1% CHAPS) of HEK 293T cells cotransfected with ColQ-Flag and AChE, run on 5 to 20% sucrose gradients with 0.8 M NaCl, 10 mM EDTA, 0.2% Brij-97; fractions assayed for AChE activity; profile not shown.

T1 sequence (Q8VI56 21-1725): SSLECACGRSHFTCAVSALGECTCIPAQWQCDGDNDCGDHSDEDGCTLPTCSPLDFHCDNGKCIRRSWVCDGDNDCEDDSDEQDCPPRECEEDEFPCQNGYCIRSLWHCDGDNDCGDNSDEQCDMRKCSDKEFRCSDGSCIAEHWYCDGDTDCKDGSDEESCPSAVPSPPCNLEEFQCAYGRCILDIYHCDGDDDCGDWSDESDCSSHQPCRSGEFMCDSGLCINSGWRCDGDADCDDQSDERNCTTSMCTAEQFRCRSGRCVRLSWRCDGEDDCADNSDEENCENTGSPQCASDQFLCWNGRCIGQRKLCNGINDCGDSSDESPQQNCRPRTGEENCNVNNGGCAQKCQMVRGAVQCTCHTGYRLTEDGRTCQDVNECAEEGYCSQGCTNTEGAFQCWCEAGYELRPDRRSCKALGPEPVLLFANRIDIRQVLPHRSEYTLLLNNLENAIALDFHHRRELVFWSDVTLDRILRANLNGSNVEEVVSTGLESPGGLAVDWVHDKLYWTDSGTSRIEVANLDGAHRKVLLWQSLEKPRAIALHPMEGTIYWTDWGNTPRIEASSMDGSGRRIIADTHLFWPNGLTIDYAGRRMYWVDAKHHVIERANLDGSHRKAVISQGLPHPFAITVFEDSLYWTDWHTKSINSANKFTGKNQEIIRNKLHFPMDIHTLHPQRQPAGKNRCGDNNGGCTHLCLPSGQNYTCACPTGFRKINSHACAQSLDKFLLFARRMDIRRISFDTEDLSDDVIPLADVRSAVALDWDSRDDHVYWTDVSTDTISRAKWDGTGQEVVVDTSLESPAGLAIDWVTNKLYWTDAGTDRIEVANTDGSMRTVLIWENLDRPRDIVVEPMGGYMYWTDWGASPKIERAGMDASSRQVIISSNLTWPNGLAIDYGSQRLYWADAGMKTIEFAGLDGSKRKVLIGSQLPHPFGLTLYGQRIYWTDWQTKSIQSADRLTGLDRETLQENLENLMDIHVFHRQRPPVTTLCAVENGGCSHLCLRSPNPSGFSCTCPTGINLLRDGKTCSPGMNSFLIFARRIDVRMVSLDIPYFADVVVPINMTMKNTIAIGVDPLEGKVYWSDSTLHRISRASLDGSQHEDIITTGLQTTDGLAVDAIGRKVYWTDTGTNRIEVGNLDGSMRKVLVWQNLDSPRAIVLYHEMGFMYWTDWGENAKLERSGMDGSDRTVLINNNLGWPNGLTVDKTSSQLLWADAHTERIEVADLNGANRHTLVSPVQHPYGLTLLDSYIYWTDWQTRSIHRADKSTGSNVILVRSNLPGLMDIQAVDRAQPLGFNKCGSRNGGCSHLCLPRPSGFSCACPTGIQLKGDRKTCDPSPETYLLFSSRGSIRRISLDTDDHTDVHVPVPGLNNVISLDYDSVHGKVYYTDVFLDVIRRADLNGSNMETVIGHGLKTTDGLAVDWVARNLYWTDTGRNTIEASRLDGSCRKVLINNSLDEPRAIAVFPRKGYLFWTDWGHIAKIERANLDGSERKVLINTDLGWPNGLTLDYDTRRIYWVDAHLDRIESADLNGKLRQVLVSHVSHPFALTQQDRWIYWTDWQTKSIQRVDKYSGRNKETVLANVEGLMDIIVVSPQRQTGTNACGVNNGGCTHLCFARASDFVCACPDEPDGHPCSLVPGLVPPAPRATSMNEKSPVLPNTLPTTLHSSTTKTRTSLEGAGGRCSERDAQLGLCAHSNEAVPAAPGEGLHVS

B1: ColQ-Flag (rat collagen Q, ColQ1a, with a Flag epitope after amino acid 26) (natural protein, UniProt O35167 23-458, looked up)
chain: QPTFINSVLPISAALPGLDQKKRGNHKACCLLMPPPPPLFPPPFFRGSRSPLLSPDMKNLLELEASPSPCMQGSLGSPGPPGPQGPPGLPGKAGPKGEKGDLGRPGRKGRPGPPGVPGEPGPVGWPGPEGPRGEKGDVGMMGLPGSRGPMGSKGFPGSRGEKGSRGERGDLGPKGEKGFPGFPGMLGQKGEMGPKGESGIAGHRGPTGRPGKRGKQGQKGDSGIMGPPGKPGPSGQPGRQGPPGPPGPPSAGQLVMGLKGERGFPGPPGRCLCGPPANVNNPSYGDPMYGRGSPRVPAIFVVNNQEELEKLNTQNAIAFRRDQRSLYFKDSLGWLPIQLTPFYPVGLHHKAAWHLCGDGVLQPGEECDDGNPDVSDGCIDCHRAYCGDGYRHRGVEDCDGSDFGYLKCETYLPGSYGELRCTQYCSIDSTPCRYFT
notes: Never purified on its own, only immunocaptured from lysates; source: captured from the lysate on anti-Flag beads, wells or sensor chip; not shown: Flag, internal (after residue 26), kept
With B1, in data set [1], the Kd was found to be 94 nM, the koff worked out at 0.0091 s⁻¹ and the kon came to 96400 M⁻¹ s⁻¹. Also, the “stoichiometry N” value in data set [2] amounted to 3.
